According to paper PMC10914487, “Interaction of human dendritic cell receptor DEC205/CD205 with keratins” (The Journal of Biological Chemistry, 2024):
Read-outs that look alike come from different tables or passages of the source.

B1: CysR∼CTLD3-Fc of DEC205 (Fc fusion)
chain: SGRAANDPFTIVHGNTGKCIKPVYGWIVADDCDETEDKLWKWVSQHRLFHLHSQKCLGLDITKSVNELRMFSCDSSAMLWWKCEHHSLYGAARYRLALKDGHGTAISNASDVWKKGGSEESLCDQPYHEIYTRDGNSYGRPCEFPFLIDGTWHHDCILDEDHSGPWCATTLNYEYDRKWGICLKPENGCEDNWEKNEQFGSCYQFNTQTALSWKEAYVSCQNQGADLLSINSAAELTYLKEKEGIAKIFWIGLNQLYSARGWEWSDHKPLNFLNWDPDRPSAPTIGGSSCARMDAESGLWQSFSCEAQLPYVCRKPLNNTVELTDVWTYSDTRCDAGWLPNNGFCYLLVNESNSWDKAHAKCKAFSSDLISIHSLADVEVVVTKLHNEDIKEEVWIGLKNINIPTLFQWSDGTEVTLTYWDENEPNVPYNKTPNCVSYLGELGQWKVQSCEEKLKYVCKRKGEKLNDASSDKMCPPDEGWKRHGETCYKIYEDEVPFGTNCNLTITSRFEQEYLNDLMKKYDKSLRKYFWTGLRDVDSCGEYNWATVGGRRRAVTFSNWNFLEPASPGGCVAMSTGKSVGKWEVKDCRSFKALSICKKMS

How the values were obtained:
CysR∼CTLD3-Fc of DEC205 [1] = biological target: T1, CysR∼CTLD3-Fc of DEC205 (human, UniProt O60449 28-627); experiment: far-Western, overlay or dot blot; keratin fragments resolved by SDS-PAGE and transferred to PVDF; membrane incubated with CysR∼CTLD3-Fc (10 μg/ml) in PBS, 5% milk, 0.1% Tween 20, pH 6.0 or pH 7.4, 2 h, room temperature; detected with HRP anti-human IgG Fcγ antibody; details: both partners purified
T1 construct: signal peptide in the construct; DEC205 (CD205, Ly75), human, CysR∼CTLD3 fragment, residues M1-S627; Human Fc homodimeric fragment with 6xHis at its C-termini fused to the C-terminus of CysR∼CTLD3; Used for Western blot (overlay) assays and ELISA; also called CysR∼CTLD3 fragment; CysR-CTLD3 fragment; source: High-Five insect cells (baculovirus made in Sf9), from culture supernatant, purified …
T1 sequence (looked up): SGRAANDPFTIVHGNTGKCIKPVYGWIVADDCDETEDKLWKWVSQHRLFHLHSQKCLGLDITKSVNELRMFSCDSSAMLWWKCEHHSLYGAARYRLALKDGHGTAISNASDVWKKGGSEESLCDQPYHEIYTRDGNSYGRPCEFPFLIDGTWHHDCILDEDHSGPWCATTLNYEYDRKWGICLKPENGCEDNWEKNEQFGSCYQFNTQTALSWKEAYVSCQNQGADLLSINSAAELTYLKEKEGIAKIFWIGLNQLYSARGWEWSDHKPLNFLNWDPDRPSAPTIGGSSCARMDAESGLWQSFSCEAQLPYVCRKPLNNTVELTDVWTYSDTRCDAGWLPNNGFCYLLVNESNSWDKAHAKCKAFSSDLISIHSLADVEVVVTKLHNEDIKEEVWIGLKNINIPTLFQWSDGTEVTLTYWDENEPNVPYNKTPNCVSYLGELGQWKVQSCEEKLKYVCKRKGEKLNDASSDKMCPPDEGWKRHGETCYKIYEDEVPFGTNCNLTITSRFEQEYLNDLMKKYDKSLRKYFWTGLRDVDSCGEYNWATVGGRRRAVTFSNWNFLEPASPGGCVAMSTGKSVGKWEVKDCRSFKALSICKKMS

CysR∼CTLD3-Fc of DEC205 [2] = biological target: T1, CysR∼CTLD3-Fc of DEC205; experiment: ELISA; keratin fragments coated (∼2 μg per well); CysR∼CTLD3-Fc serially diluted in PBS, 2 mg/ml BSA at preset pH (acidic pH), 2 h, 37 °C; detected with HRP anti-human IgG Fcγ antibody; details: both partners purified
CysR∼CTLD3-Fc of DEC205 [3] = biological target: B1; experiment: ELISA; pH 6.0
[4] = biological target: T2, CysR∼CTLD3-GFP fragment of DEC205 (wild type) (human, UniProt O60449 28-627); experiment: flow cytometry on cells; inhibition assay: ActD-induced Jurkat cells in PBS pH 6.0 incubated with CysR∼CTLD3-GFP with or without keratin fragments (about 20 μg/ml); the pair meant is keratin fragment and CysR∼CTLD3-GFP; details: both partners purified
T2 construct: signal peptide in the construct; DEC205 (CD205, Ly75), human, CysR∼CTLD3 fragment, residues M1-S627; Used for flow cytometry; also called CysR-CTLD3 fragment; not shown: GFP, C-terminal, kept
T2 sequence (looked up): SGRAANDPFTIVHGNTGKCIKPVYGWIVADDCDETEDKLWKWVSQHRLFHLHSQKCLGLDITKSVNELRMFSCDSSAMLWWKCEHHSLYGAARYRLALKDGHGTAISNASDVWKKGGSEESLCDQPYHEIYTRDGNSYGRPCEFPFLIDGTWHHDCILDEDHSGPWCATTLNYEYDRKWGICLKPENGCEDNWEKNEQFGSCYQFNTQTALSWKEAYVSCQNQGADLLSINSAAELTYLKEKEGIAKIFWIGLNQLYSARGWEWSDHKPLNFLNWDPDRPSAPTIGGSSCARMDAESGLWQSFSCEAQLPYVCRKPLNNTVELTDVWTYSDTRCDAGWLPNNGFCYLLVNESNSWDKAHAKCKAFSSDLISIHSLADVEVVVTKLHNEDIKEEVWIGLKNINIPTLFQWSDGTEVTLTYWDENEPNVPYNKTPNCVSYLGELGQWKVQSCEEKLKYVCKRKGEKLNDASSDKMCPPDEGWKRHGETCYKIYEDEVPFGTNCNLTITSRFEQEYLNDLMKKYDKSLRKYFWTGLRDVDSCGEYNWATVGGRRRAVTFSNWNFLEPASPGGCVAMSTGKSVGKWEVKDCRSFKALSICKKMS

[5] = biological target: T3, Human keratin 1 tail region K1-T1 (residue E490-R644) (human, UniProt P04264 490-644); experiment: ELISA; pH 6.0
T3 chain: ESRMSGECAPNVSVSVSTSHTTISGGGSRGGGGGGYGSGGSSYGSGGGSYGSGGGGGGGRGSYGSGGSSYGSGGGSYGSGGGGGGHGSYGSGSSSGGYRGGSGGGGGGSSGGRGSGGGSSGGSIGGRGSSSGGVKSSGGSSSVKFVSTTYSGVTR

[6] = biological target: T4, Human keratin 10 C-terminal tail fragment K10-T1 (residue G461-Y584) (human, UniProt P13645 461-584); experiment: ELISA; pH 6.0
T4 chain: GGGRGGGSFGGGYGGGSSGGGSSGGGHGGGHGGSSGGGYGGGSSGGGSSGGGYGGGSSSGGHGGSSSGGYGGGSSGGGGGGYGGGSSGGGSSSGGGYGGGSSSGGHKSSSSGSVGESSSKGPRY

[7] = biological target: the molecule itself; experiment: crystal structure; CysR∼CTLD3-His crystallised in 0.2 M sodium citrate, 20% PEG3350, pH 6.5-7.4, 18 °C; P1 crystal form with a homodimer in one asymmetric unit
CysR∼CTLD3-Fc of DEC205 [8] = biological target: B1; experiment: ELISA; pH 6.0

| Binder | binding result (CysR∼CTLD3-Fc of DEC205 [1]) | binding result [4] | other results |
| --- | --- | --- | --- |
| GGGRGGGSFGGGYGGGSSGGGSSGGGHGGGH (peptide, UniProt P13645 461-491, looked up, keratin 10 (K10), human, tail, residues G461-H491; source: E. coli BL21(DE3), pET28a, purified (Ni-NTA); not shown: SUMO, N-terminal, kept) [K10-T4 (residue G461-H491), SUMO fusion] | binds |  |  |
| GSGGGSYGSG (Expressed and purified for ELISA and flow cytometry; source: E. coli BL21(DE3), pET28a, purified (Ni-NTA)) [K1-T3 (G532-G541 and G560-G569: GSGGGSYGSG), SUMO fusion] |  | binds | binding result (CysR∼CTLD3-Fc of DEC205 [2]): binds; Kd (CysR∼CTLD3-Fc of DEC205 [3]): 28.7 nM |
| GSSGGGYGGGSSSG (peptide, UniProt P13645 507-520, looked up, keratin 10 (K10), human, tail, residues G507-G520; source: E. coli BL21(DE3), pET28a, purified (Ni-NTA); not shown: SUMO, N-terminal, kept) [K10-T9 (residue G507-G520), SUMO fusion] | binds |  |  |
| K10-T2 (residue G461-G520), SUMO fusion (domain or fragment, human, UniProt P13645 461-520, looked up, keratin 10 (K10), human, tail, residues G461-G520; source: E. coli BL21(DE3), pET28a, purified (Ni-NTA); not shown: SUMO, N-terminal, kept) GGGRGGGSFGGGYGGGSSGGGSSGGGHGGGHGGSSGGGYGGGSSGGGSSGGGYGGGSSSG | binds |  |  |
| B1 |  |  | Kd [5]: 31.2 nM; Kd [6]: 11.5 nM |
| CysR∼CTLD3 fragment of human DEC205 (residues M1-S627) with a C-terminal 6xHis-tag (domain or fragment, UniProt O60449 28-627, looked up, signal peptide in the construct; DEC205 (CD205, Ly75), human, CysR∼CTLD3 fragment, residues M1-S627; Construct used for crystallisation; a homodimer stands in the asymmetric unit of the P1 crystal form only; also called N-terminal fragment of DEC205; CD205; source: High-Five insect cells (baculovirus made in Sf9), from culture supernatant, purified (Ni-NTA, gel filtration)) SGRAANDPFTIVHGNTGKCIKPVYGWIVADDCDETEDKLWKWVSQHRLFHLHSQKCLGLDITKSVNELRMFSCDSSAMLWWKCEHHSLYGAARYRLALKDGHGTAISNASDVWKKGGSEESLCDQPYHEIYTRDGNSYGRPCEFPFLIDGTWHHDCILDEDHSGPWCATTLNYEYDRKWGICLKPENGCEDNWEKNEQFGSCYQFNTQTALSWKEAYVSCQNQGADLLSINSAAELTYLKEKEGIAKIFWIGLNQLYSARGWEWSDHKPLNFLNWDPDRPSAPTIGGSSCARMDAESGLWQSFSCEAQLPYVCRKPLNNTVELTDVWTYSDTRCDAGWLPNNGFCYLLVNESNSWDKAHAKCKAFSSDLISIHSLADVEVVVTKLHNEDIKEEVWIGLKNINIPTLFQWSDGTEVTLTYWDENEPNVPYNKTPNCVSYLGELGQWKVQSCEEKLKYVCKRKGEKLNDASSDKMCPPDEGWKRHGETCYKIYEDEVPFGTNCNLTITSRFEQEYLNDLMKKYDKSLRKYFWTGLRDVDSCGEYNWATVGGRRRAVTFSNWNFLEPASPGGCVAMSTGKSVGKWEVKDCRSFKALSICKKMS |  |  | binding result [7]: binds |
| GSSGGGHGGG (keratin 10 (K10), human, tail, residues G481-G490; Form used in the Western blot (overlay) assay and, with SUMO as control, in ELISA; source: E. coli BL21(DE3), pET28a, purified (Ni-NTA); not shown: SUMO, N-terminal, kept) [K10-T10 (residue G481-G490), SUMO fusion] |  |  | binding result (CysR∼CTLD3-Fc of DEC205 [2]): binds; Kd (CysR∼CTLD3-Fc of DEC205 [8]): 10.9 nM |
| GSSGGGHGGG (keratin 10 (K10), human, tail, residues G481-G490; source: synthetic peptide) [chemically synthesized peptide K10-T10] |  | binds |  |
| GSSGGGYGGG (keratin 10 (K10), human, tail, residues G507-G516; source: synthetic peptide) [chemically synthesized peptide K10-T11] |  | binds |  |
| GGSSGGGYGGGSSGGGSSGGGYGGGSSSG (peptide, UniProt P13645 492-520, looked up, keratin 10 (K10), human, tail, residues G492-G520; source: E. coli BL21(DE3), pET28a, purified (Ni-NTA); not shown: SUMO, N-terminal, kept) [K10-T5 (residue G492-G520), SUMO fusion] | binds |  |  |
| GGSSGGGYGGGSSGG (peptide, UniProt P13645 492-506, looked up, keratin 10 (K10), human, tail, residues G492-G506; source: E. coli BL21(DE3), pET28a, purified (Ni-NTA); not shown: SUMO, N-terminal, kept) [K10-T8 (residue G492-G506), SUMO fusion] | binds |  |  |
| ISGGGSRGGG (keratin 1 (K1), human, tail, residues I512-G521; Expressed and purified for ELISA and flow cytometry; source: E. coli BL21(DE3), pET28a, purified (Ni-NTA)) [K1-T2 (I512-G521: ISGGGSRGGG), SUMO fusion] |  | binds | binding result (CysR∼CTLD3-Fc of DEC205 [2]): binds; Kd (CysR∼CTLD3-Fc of DEC205 [3]): 29.1 nM |
| Human keratin 10 C-terminal tail fragment K10-T1 (residue G461-Y584) (domain or fragment, UniProt P13645 461-584, looked up, keratin 10 (K10), human, C-terminal tail, residues G461-Y584; Expressed without a SUMO tag; source: E. coli BL21(DE3), pET28a, purified (Ni-NTA)) GGGRGGGSFGGGYGGGSSGGGSSGGGHGGGHGGSSGGGYGGGSSGGGSSGGGYGGGSSSGGHGGSSSGGYGGGSSGGGGGGYGGGSSGGGSSSGGGYGGGSSSGGHKSSSSGSVGESSSKGPRY |  | binds | binding result (CysR∼CTLD3-Fc of DEC205 [2]): binds |
| GSSGGGYGGG (keratin 10 (K10), human, tail, residues G507-G516; source: E. coli BL21(DE3), pET28a, purified (Ni-NTA); not shown: SUMO, N-terminal, kept) [K10-T11 (residue G507-G516), SUMO fusion] | binds |  |  |
| GGGRGGGSFGGGYGGG (peptide, UniProt P13645 461-476, looked up, keratin 10 (K10), human, tail, residues G461-G476; source: E. coli BL21(DE3), pET28a, purified (Ni-NTA); not shown: SUMO, N-terminal, kept) [K10-T6 (residue G461-G476), SUMO fusion] | binds |  |  |
| SSGGGSSGGGHGGGH (peptide, UniProt P13645 477-491, looked up, keratin 10 (K10), human, tail, residues S477-H491; source: E. coli BL21(DE3), pET28a, purified (Ni-NTA); not shown: SUMO, N-terminal, kept) [K10-T7 (residue S477-H491), SUMO fusion] | binds |  |  |
